Test results taken from patent US20200283507A1 (US Dept. of Health and Human Services, published 2020).

T1: Hu/NoV/GI.1/Norwalk/1968/U.S. VLP (human norovirus GI.1, UniProt Q83884 1-530 (Norovirus (strain entry), limits assumed))
T1 construct: mature; full-length VP1 (ORF2) assembled as virus-like particle in baculovirus/Sf9; also called Norwalk VLP; NV
T1 sequence (looked up): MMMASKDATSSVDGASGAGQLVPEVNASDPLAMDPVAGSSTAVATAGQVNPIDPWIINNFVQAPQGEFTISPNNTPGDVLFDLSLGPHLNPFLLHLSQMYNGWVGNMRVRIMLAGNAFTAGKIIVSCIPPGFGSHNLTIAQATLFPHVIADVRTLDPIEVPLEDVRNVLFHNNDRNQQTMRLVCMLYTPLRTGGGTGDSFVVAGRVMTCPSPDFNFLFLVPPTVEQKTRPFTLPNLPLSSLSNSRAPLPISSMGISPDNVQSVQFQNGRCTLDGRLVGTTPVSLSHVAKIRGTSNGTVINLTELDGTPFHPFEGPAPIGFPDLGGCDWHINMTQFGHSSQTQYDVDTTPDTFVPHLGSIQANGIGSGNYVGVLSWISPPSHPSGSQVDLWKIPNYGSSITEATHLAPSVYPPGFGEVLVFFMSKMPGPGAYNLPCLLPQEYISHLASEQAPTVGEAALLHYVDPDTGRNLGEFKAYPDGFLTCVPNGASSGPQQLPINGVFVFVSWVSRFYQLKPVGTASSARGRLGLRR

B1: VHH 3.2 (VHH)
VHH: QVQLQESGGGLVQPGGSLRLSCAASESTPSINTMGWYRQAPGKERELVATITSGGMTNYADSVKGRFTISRDNGKNTVYLQMNSLEPGDTAVYYCNLKRRDLQARFGGYWGQGTQVTVSS
notes: llama VHH, MD2004 library; pHEN6, C-terminal His6 tag; also called clone 3.2
B2: VHH 14.5 (VHH)
VHH: DVQLQASGGGLVQAGGSLRLSCVASARTFSSYAMGWFRQAPGKEREFVAAISWSGASTDYADSVKGRFTISRDNAKKTVYLQMNTLKPEDTAVYYCAAHHITPTGSYYYSEPLPVDMVYDYWGQGTQVTVSS
notes: llama VHH, Norwalk library; pHEN6, C-terminal His6 tag
B3: VHH 16 (VHH)
VHH: QVKLQQSGGGLVQPGGSLRLTCAASGFPFSTYAIRWVRRPPGKGLEWVSTIHPDFTTNYADSVSRRFTISRDNAKNTVYLQMNSLKPEDTAVYYCSRGVSGERGQGTQVTVSS
notes: MD2004 library, subtractive biopanning; His6 tag; also called 16.1; clone 16
B4: VHH 9.8 (VHH)
VHH: QVKLQQSGGGLVQAGGSLRLSCAASGTFSRYAMGWFRQAPGKEREFVAAINWTGGSTYYADSVKGRFTISGDNAKNTVYLQMNSLKPGDTAVYYCAAEVHPGDYGLTYMQSQYEYDYWGQGTQVTVSS
notes: llama VHH, Norwalk library; His6 tag
B5: VHH 12.2 (VHH)
VHH: DVQLQASGGGLVQAGGSLRLSCAASGSTISSYAMAWYRQAPGKRRELVAHISSGGSTNYADSVKGRFTISRDNAKNTVYLQMNSLKPEDTAVYYCNIYYGGDYYYTGVKPNPWGQGTQVTVSS
notes: as for B2
B6: VHH 1 (VHH)
VHH: QVQLQQSGGGLVQAGGSLRLSCAASGLAFSSYAITWLRQAPGTEREFVALISGSGSSTYYADSVKGRFTISRNNAKNTVYLQMNSLKPEDTAVYYCTASEFLLHPPPPNQKYDYWGQGTQVTVSS
notes: llama VHH, MD2004 (GII.4) library; pHEN6, C-terminal His6 tag; also called 1.1; clone 1
B7: VHH 11.2 (VHH)
VHH: DVQLQASGGGLVQAGGSLRLSCAASTSRFSSYAMGWSRQAPGKQRELVASISSSGLTTNYADSVKGRFTISRDNAKNTVYLQMNSLKPEDTAVYYCKADGRRYSLNEYWGQGTQVTVSS
notes: llama VHH, Norwalk library; pHEN6, C-terminal His6 tag; also called VHH 11.1
B8: VHH 2.1 (VHH)
VHH: QVQLQESGGGLVQAGGSLRLSCAASGLTFSSYAMGWFHQAPGKEREFVAAINWSGRDTYYADSVKGRFTISRDNRKNTVYLQMNSLKPEDTAVYYCAAAEFFSSGDPLPGMDYWGKGTLVTVSS
notes: llama VHH, MD2004 library; pHEN6, C-terminal His6 tag; also called clone 2.1
B9: VHH 8.1 (VHH)
VHH: QVKLQESGGGLVQAGGSLRLSCAASGFTFATYAMAWYRQAPGKQRELVASISNFGSTAYGDSVKGRFTISRDNAKNTVYLEMNSLKSEDTAVYYCKRVRDVIGRPELWGQGTQVTVSS
notes: as for B2

Columns and labels:
[1] = molecular target: T2, Hu/NoV/GII.4/CHDC4871/1977/U.S. VLP (human norovirus GII.4); assay: VLP ELISA
T2 construct: mature; baculovirus VLP; VP2 may be present

[2] = molecular target: T3, Hu/NoV/GII.4/RockvilleD1/2012/U.S. VLP (human norovirus GII.4); assay: VLP ELISA
T3 construct: mature; baculovirus VLP; VP2 may be present

[3] = molecular target: T4, Hu/NoV/GII.4/MD2004/2004/U.S. VLP (human norovirus GII.4); assay: VLP ELISA
T4 construct: mature; baculovirus VLP; VP2 may be present; also called MD2004 VLP

[4] = molecular target: T5, Hu/NoV/GII.4/MD145-12/1997/U.S. VLP (human norovirus GII.4); assay: VLP ELISA
T5 construct: mature; baculovirus VLP; VP2 may be present

[5] = molecular target: T6, Hu/NoV/GII.4/HS-191/2001/U.S. VLP (human norovirus GII.4); assay: VLP ELISA
T6 construct: mature; baculovirus VLP; VP2 may be present

[6] = molecular target: T7, Hu/GII.6/Bethesda/2012/U.S. VLP (human norovirus GII.6); assay: VLP ELISA
T7 construct: mature; baculovirus VLP; VP2 may be present

[7] = molecular target: T4, Hu/NoV/GII.4/MD2004/2004/U.S. VLP; assay: cell-based or functional assay
[8] = molecular target: T5, Hu/NoV/GII.4/MD145-12/1997/U.S. VLP; assay: cell-based or functional assay
[9] = molecular target: T5, Hu/NoV/GII.4/MD145-12/1997/U.S. VLP; assay: blockade ELISA: VLP binding to saliva Ly+
Method: (§1) For this assay saliva positive for Ly antigen collected from a secretor individual was used. Saliva was boiled (95° C.) for 10 minutes immediately after collection, centrifuged for 5 minutes at 13000×g and the supernatants stored at −20° C. until used. ELISA 96 well U bottom polyvinyl plates Dynatech (Nunc, Thermo, EEUU) were coated with 100 μl/well of a 1/400 saliva dilution in 50 μM carbonate-bicarbonate buffer, pH 9.6. The plate was incubated overnight at 37° C. in a wet atmosphere. In parallel, serial two-fold dilutions of VHH starting from 8 ug/ml were mixed with 1.5 ug/ml of NoV VLP Norwalk and MD145 and incubated for 1h at 37° C. After 6 washes and a blocking step with 5% dry milk/0.05% Tween₂₀-PBS, 50 ul of each VHH-VLP mixture was transferred to the reaction plate, in duplicate. The assay was developed using a specific polyclonal antiserum made in guinea pig (1:10,000) followed by a peroxidase labeled anti-guinea pig IgG (1:2,000) and ABTS/H₂O₂ as substrate chromogen (KPL), 100 μl per well. Absorbance at 405 nm was measured. Mean % control binding, EC50 and criteria for determination of a blockade VHH were calculated as described above.

[10] = molecular target: T4, Hu/NoV/GII.4/MD2004/2004/U.S. VLP; assay: blockade ELISA: VLP binding to PGM type III
Method: (§2) Pig Gastric Mucin Type III (PGM) (Sigma Chemicals) was used as a substrate for NoV VLP antibody-blockade assay as previously described. Briefly, PGM was resuspended in PBS at 5 mg/ml and coated onto 96 well U bottom polyvinyl plates Dynatech (Nunc, Thermo, USA) at 10 μg/ml in PBS for 4 hours. Plates were then blocked ON at 4° C. in 5% dry milk in 0.05% Tween₂₀-PBS. […] One hundred μl of VLPs-VHH mix were transferred to the PGM coated plates and incubated for 1 hour. Bound VLPs were detected by specific hyperimmune sera made in guinea pig, followed by anti-guinea pig IgG-HRP (KLP). ABTS/H₂O₂ was used as chromogen/substrate solution. All incubations were performed at room temperature and absorbance at 405 nm was measured. Mean % control binding, EC50 and criteria for determination of a blockade VHH were calculated as described above.

[11] = molecular target: T5, Hu/NoV/GII.4/MD145-12/1997/U.S. VLP; assay: blockade ELISA: VLP binding to synthetic HBGA H3
[12] = molecular target: T1, Hu/NoV/GI.1/Norwalk/1968/U.S. VLP; assay: VLP ELISA
[13] = molecular target: T8, Hu/NoV/GI.1/P7-587/2007/Stromstad/Sweden VLP (human norovirus GI.1); assay: VLP ELISA
T8 construct: mature; baculovirus VLP; VP2 may be present; also called Norovirus 2007

[14] = molecular target: T1, Hu/NoV/GI.1/Norwalk/1968/U.S. VLP; assay: cell-based or functional assay
[15] = molecular target: T8, Hu/NoV/GI.1/P7-587/2007/Stromstad/Sweden …; assay: cell-based or functional assay
[16] = molecular target: T1, Hu/NoV/GI.1/Norwalk/1968/U.S. VLP; assay: blockade ELISA: VLP binding to saliva Ly+
Method: as §1

[17] = molecular target: T1, Hu/NoV/GI.1/Norwalk/1968/U.S. VLP; assay: blockade ELISA: VLP binding to PGM type III
Method: as §2

Binder	minimum concentration of VHH able to recognize 100 ng of VLP [2] [ng/well]	minimum concentration of VHH able to recognize 100 ng of VLP [3] [ng/well]	minimum concentration of VHH able to recognize 100 ng of VLP [4] [ng/well]	minimum concentration of VHH able to recognize 100 ng of VLP [5] [ng/well]	EC50 [10] [µg/mL]	minimum concentration of VHH able to recognize 100 ng of VLP [12] [ng/well]	minimum concentration of VHH able to recognize 100 ng of VLP [13] [ng/well]	HAI titer, 0 Rh- RBC [15] [µg/mL]	EC50 [17] [µg/mL]	other results
B1	0.5	2	1	0.5	2.3					minimum concentration of VHH able to recognize 100 ng of VLP [1]: 0.5 ng/well; minimum concentration of VHH able to recognize 100 ng of VLP [6]: 0.5 ng/well; HAI titer, B Rh+ RBC [7]: 0.19 µg/mL; HAI titer, B Rh+ RBC [8]: 0.19 µg/mL; EC50 [9]: 0.917 µg/mL; EC50 [11]: 0.641 µg/mL
B2						0.5	0.5	0.05	0.351	HAI titer, 0 Rh- RBC [14]: 0.78 µg/mL; EC50 [16]: 1.56 µg/mL
B3		0.5			0.767					binding result [12]: no binding
B4						0.5			1.14	EC50 [16]: 1.72 µg/mL
B5						1	1	0.8	2.59	
B6	0.25	0.5	0.5	1	0.341					minimum concentration of VHH able to recognize 100 ng of VLP [1]: 0.25 ng/well; EC50 [9]: 2.01 µg/mL; EC50 [11]: 0.85 µg/mL
B7							1			
B8	0.25	0.5	8	0.5						
B9							1	0.78		
